Assay results reported in US20110047631A1 (MEDICAL COLLEGE OF GEORGIA RESEARCH INSTITUTE, published 2011).

Target: T1, purified wild-type tau441 (UniProt P10636-8 1-441)
T1 construct: The 441-residue isoform, not the canonical UniProt entry length; Used at 2 uM; also called purified tau 441; purified tau
Test: purified wild-type tau441 and purified Hsp110 incubated together, immunoprecipitation, immunoblot
Method: As the data in FIG. 6 indicates, Hsp110 is present in tau immunocomplexes; however, it is not clear whether the interaction is direct or indirect. In order to determine whether Hsp110 interacts with tau directly, we incubated purified wild-type tau441 and Hsp110 and subjected them to immunoprecipitation analyses.

T1 sequence (P10636 other isoform, or with tags, fused parts or gaps limits assumed): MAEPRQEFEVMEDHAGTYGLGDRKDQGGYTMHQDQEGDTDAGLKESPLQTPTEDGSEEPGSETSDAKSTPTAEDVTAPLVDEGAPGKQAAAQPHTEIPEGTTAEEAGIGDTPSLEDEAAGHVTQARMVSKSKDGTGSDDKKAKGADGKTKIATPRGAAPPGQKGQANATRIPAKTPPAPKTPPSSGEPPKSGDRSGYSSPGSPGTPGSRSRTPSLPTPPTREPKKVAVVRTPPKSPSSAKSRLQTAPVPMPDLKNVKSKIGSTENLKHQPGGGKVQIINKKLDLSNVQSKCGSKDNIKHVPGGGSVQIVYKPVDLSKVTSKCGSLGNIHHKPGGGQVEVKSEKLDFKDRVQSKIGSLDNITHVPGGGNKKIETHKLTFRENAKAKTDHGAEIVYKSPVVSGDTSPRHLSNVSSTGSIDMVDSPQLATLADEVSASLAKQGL

binding result: binds
B1: purified full-length Hsp110 (human) (other, UniProt Q92598 2-858, looked up)
chain: SVVGLDVGSQSCYIAVARAGGIETIANEFSDRCTPSVISFGSKNRTIGVAAKNQQITHANNTVSNFKRFHGRAFNDPFIQKEKENLSYDLVPLKNGGVGIKVMYMGEEHLFSVEQITAMLLTKLKETAENSLKKPVTDCVISVPSFFTDAERRSVLDAAQIVGLNCLRLMNDMTAVALNYGIYKQDLPSLDEKPRIVVFVDMGHSAFQVSACAFNKGKLKVLGTAFDPFLGGKNFDEKLVEHFCAEFKTKYKLDAKSKIRALLRLYQECEKLKKLMSSNSTDLPLNIECFMNDKDVSGKMNRSQFEELCAELLQKIEVPLYSLLEQTHLKVEDVSAVEIVGGATRIPAVKERIAKFFGKDISTTLNADEAVARGCALQCAILSPAFKVREFSVTDAVPFPISLIWNHDSEDTEGVHEVFSRNHAAPFSKVLTFLRRGPFELEAFYSDPQGVPYPEAKIGRFVVQNVSAQKDGEKSRVKVKVRVNTHGIFTISTASMVEKVPTEENEMSSEADMECLNQRPPENPDTDKNVQQDNSEAGTQPQVQTDAQQTSQSPPSPELTSEENKIPDADKANEKKVDQPPEAKKPKIKVVNVELPIEANLVWQLGKDLLNMYIETEGKMIMQDKLEKERNDAKNAVEEYVYEFRDKLCGPYEKFICEQDHQNFLRLLTETEDWLYEEGEDQAKQAYVDKLEELMKIGTPVKVRFQEAEERPKMFEELGQRLQHYAKIAADFRNKDEKYNHIDESEMKKVEKSVNEVMEWMNNVMNAQAKKSLDQDPVVRAQEIKTKIKELNNTCEPVVTQPKPKIESPKLERTPNGPNIDKKEEDLEDKNNFGAEPPHQNGECYPNEKNSVNMDLD
notes: mature; used at 2 uM; also called purified Hsp110
